Data published in publication PMC9046454.

Tests used:
[1] = molecular target: T1, nLuc-AFF (6*-50* duplication, 6-aa linker AAGASS) (UniProt P03069 226-281); assay: luminescence switching
[2] = molecular target: T1, nLuc-AFF (6*-50* duplication, 6-aa …); assay: fluorescence anisotropy
[3] = molecular target: T1, nLuc-AFF (6*-50* duplication, 6-aa …); assay: luminescence ratio L460/L520 titration
[4] = molecular target: T1, nLuc-AFF (6*-50* duplication, 6-aa …); assay: luminescence ratio L460/L520 titration; remark: listed apart in the source

T1 sequence (P03069 226-281): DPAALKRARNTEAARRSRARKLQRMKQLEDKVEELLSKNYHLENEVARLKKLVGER

Row | Binder | binding result [1] | Kd [2] [nM] | Kd [3] [nM] | Kd [4] [nM]
1 | NC duplex (non-consensus) (dsDNA) DNA 1: GTTCCAGGTTAAGAAGTGCTCTCAGGGTGGCGCGGC DNA 2: GCCGCGCCACCCTGAGAGCACTTCTTAACCTGGAAC | no binding |  |  | 
2 | AP-1 duplex (dsDNA) DNA 1: AGTGGAGATGACTCATCTCGTGC DNA 2: GCACGAGATGAGTCATCTCCACT |  | 11.6 ± 2.5 | 14.3 ± 3.5 | 37 ± 11
